Measurements published in US20240294624A1, “ANTI-ERYTHROPOIETIN ANTIBODY” (ANDREMACON S.R.L., priority 2021, published 2024).

Assay: Plasma pharmacokinetics by SPR after single i.v. injection
Format: in vivo
Conditions: mice with glioblastoma xenograft, single i.v. 10 mg/kg
Protocol: The ligands hEPO and BSA (Sigma-Aldrich, Italy, used as reference) were immobilized using amine-coupling chemistry on parallel channels of a CMD700L (Xantec GmbH) sensor chip. Briefly, surface was activated with sulfo NHS/EDC according to manufacturer's recommendation; hEPO and BSA were diluted at a concentration of 400 and 30 μg/mL in acetate buffer, pH 4.0 and 4.5, respectively. These solutions were flowed for 5 min at a rate of 30 μL/min over the activated chip surface. The remaining activated groups were blocked with ethanolamine, pH 8.0.
The analyte solutions (e.g. control plasma containing spiked anti-EPO (C4) antibody, or plasma/tissue samples from treated mice) were injected so that they flowed simultaneously on both immobilized hEPO and the reference surface. Dissociation was measured in the following 10 minutes. All of these assays were carried out at 25° C. […]
This method can thus allow to determine the plasma and tissue concentrations of antibody, on the basis of an appropriate calibration curve (FIG. 26A). The Lower Limit of Detection calculated was ˜0.5 μg/mL (˜3.3 nM), which corresponding to a LLD of 5 μg/mL in undiluted plasma.
The pharmacokinetic (PK) profile of anti-EPO (C4) was assessed after single i.v. injection in mice models for glioblastoma. In particular, the antibody concentrations were measured at different time points after treatment (from 6 hours to 1 week) in: […]

B1: anti-EPO (C4): isolated anti-Erythropoietin monoclonal antibody, VL SEQ ID NO:6, VH SEQ ID NO:14, hybridoma DSM ACC 3370 (antibody, listed as Homo sapiens, V domains shown)
VH: EVKLQESGGGLVQPGGSLKLSCAASGFTFSTYTMSWVRQTPEKRLEWVAYISNGGDRTYYPDTVKGRFTISRDDAKNTLFLQMSSLKSEDTAMYYCARHNITTVPFTMDYWGQGTSVTVSS
VL: DIVLTQSPASLAVSLGQRATISCRASESVDYYGTGLMQWYQQRPGQPPKLLIYGASNVGSGVPARFSGSGSGTDFSLNIHPVEGDDIAMYFCQQTRKVPSTFGGGTKLEIK
modifications: VH amino acid sequence; VL amino acid sequence
  half-time of elimination: about 4.4 days
